Data reported in publication PMC10284694, “Genome expansion by a CRISPR trimmer-integrase”.
One block for each molecule: values may come before it.

What was measured:
[1] = biological target: Megasphaera NM10-related Cas2 and DEDDh fusion protein (Cas2/DEDDh) (Megasphaera NM10-related); assay: cryo-EM structure; 50 µM Cas1, 50 µM Cas2/DEDDh and 12.5 µM prespacer or half-site DNA mixed, dialysed 2 h at room temperature, purified over Superose 6 Increase 10/300 GL; complexes bound to DNA
[2] = biological target: Megasphaera NM10-related Cas1 (Megasphaera NM10-related); assay: as above
[3] = biological target: T1, Cas1 (type I-E);Cas2/DEDDh (natural Cas2-DEDDh fusion) (Megasphaera NM10-related;Megasphaera …, UniProt A0AA82WPF9;A0AA82WPG7 1-316;1-289, |); assay: cryo-EM structure (2.9 A); Cryo-EM sample buffer not in the material; DNA annealed in 20 mM HEPES pH 7.5, 25 mM KCl, 10 mM MgCl2; protein storage 20 mM HEPES pH 7.5, 500 mM KCl, 1 mM TCEP, 5% glycerol; details: protein: recombinant;recombinant; tags: 10xHis-MBP removed with TEV;10xHis-MBP removed with TEV; chain copies: 4;2; 23 bp duplex, 3' overhangs 15 nt on both strands (5 nt visible)
T1 sequence 1: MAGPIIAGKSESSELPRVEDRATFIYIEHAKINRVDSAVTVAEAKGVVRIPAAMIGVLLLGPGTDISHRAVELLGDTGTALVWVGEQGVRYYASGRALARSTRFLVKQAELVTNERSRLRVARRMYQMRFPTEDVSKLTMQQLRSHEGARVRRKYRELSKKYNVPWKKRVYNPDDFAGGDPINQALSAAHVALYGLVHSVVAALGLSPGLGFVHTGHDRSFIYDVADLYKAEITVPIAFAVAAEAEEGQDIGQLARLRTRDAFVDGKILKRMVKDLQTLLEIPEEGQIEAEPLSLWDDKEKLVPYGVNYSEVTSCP
T1 sequence 2: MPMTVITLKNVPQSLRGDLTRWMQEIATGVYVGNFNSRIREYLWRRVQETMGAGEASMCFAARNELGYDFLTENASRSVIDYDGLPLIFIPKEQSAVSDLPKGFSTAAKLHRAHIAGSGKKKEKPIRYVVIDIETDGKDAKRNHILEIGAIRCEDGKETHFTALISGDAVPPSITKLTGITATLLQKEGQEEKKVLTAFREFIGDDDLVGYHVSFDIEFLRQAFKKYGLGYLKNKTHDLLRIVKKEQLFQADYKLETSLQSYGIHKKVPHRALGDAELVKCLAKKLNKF

[4] = biological target: T1, Cas1 (type I-E);Cas2/DEDDh (natural …); assay: cryo-EM structure (3.1 A); Cryo-EM sample buffer not in the material; DNA annealed in 20 mM HEPES pH 7.5, 25 mM KCl, 10 mM MgCl2; protein storage 20 mM HEPES pH 7.5, 500 mM KCl, 1 mM TCEP, 5% glycerol; details: protein: recombinant;recombinant; tags: 10xHis-MBP removed with TEV;10xHis-MBP removed with TEV; chain copies: 4;2; 23 bp duplex, 3' overhangs 15 nt on both strands before trimming

B1: CryoEM prespacer, PAM-deficient (dsDNA)
DNA 1: ACTCATGATGCACAAGTGGTTGCGCGTGAACCCAGTTG
DNA 2: GCAACCACTTGTGCATCATGAGTGATGAAACCCAGTTG
modifications: phosphorothioate between nt 28 and 29 of each strand
binding result [3]: binds

B2: CryoEM prespacer, TT PAM-containing (dsDNA)
DNA 1: ACTCATGATGCACAAGTGGTTGCGCGTGTTCCCAGTTG
DNA 2: GCAACCACTTGTGCATCATGAGTGATGAAACCCAGTTG
modifications: phosphorothioate between nt 33 and 34 of strand 1 and between nt 28 and 29 of strand 2
binding result [4]: binds

Now from value to molecule:

stoichiometry N [1]: 2
Molecule: Megasphaera NM10-related Cas2 and DEDDh fusion protein (Cas2/DEDDh) (enzyme)

stoichiometry N [2]: 2
Molecule: Megasphaera NM10-related Cas1 (enzyme)
